According to US20210101982A1:

Target: PD-L1 on cells (cancer cell lines expressing PD-L1; PD-L1+ aAPC/CHO-K1 cells) (human) (UniProt Q9NZQ7)
Assay: cell-based or functional assay

PD-L1 on cells (cancer cell lines expressing PD-L1; PD-L1+ aAPC/CHO-K1 cells) (human), sequence (Q9NZQ7 19-290): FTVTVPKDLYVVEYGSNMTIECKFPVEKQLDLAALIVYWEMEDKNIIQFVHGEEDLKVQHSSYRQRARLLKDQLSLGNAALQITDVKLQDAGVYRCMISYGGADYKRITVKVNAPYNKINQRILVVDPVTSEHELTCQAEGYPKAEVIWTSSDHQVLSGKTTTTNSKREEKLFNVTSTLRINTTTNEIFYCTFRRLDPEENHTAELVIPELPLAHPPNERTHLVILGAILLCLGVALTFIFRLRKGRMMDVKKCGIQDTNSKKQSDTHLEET

Atezolizumab - vc-MMAE (antibody)
> 3000 ng/mL: x50 (50% reduction in viability, CellTiter-Glo, 96 h) on 786-O cells | x50 (50% reduction in viability, CellTiter-Glo, 96 h) on BXPC3 cells | x50 (50% reduction in viability, CellTiter-Glo, 96 h) on KARPAS 299 cells | x50 (50% reduction in viability, CellTiter-Glo, 96 h) on L540CY cells | x50 (50% reduction in viability, CellTiter-Glo, 96 h) on MDA-MB-231 cells

Atezolizumab - MP-PEG8-VKG-Camptothecin (antibody)
> 3000 ng/mL: x50 (50% reduction in viability, CellTiter-Glo, 96 h) on 786-O cells | x50 (50% reduction in viability, CellTiter-Glo, 96 h) on BXPC3 cells | x50 (50% reduction in viability, CellTiter-Glo, 96 h) on KARPAS 299 cells | x50 (50% reduction in viability, CellTiter-Glo, 96 h) on L540CY cells | x50 (50% reduction in viability, CellTiter-Glo, 96 h) on MDA-MB-231 cells
